{
  "source": "patent US20030054337A1",
  "key": {"[1]": {"target": "V12.Pf1 recombinant HBc chimer particle (hepatitis B virus, subtype ayw; Plasmodium falciparum)", "experiment": "particle ELISA, end point titer dilution of MoAb 2A10"}, "[2]": {"target": "V12.Pf3 recombinant HBc chimer particle (hepatitis B virus, subtype ayw; Plasmodium falciparum)", "experiment": "particle ELISA, end point titer dilution of MoAb 2A10"}, "[3]": {"target": "V12.Pf3.1 recombinant HBc chimer particle (hepatitis B virus, subtype ayw; Plasmodium falciparum)", "experiment": "particle ELISA, end point titer dilution of MoAb 2A10"}, "[4]": {"target": "V12.Pf3.10 recombinant HBc chimer particle (hepatitis B virus, subtype ayw; Plasmodium falciparum)", "experiment": "particle ELISA, end point titer dilution of MoAb 2A10"}, "[5]": {"target": "V12.Pf3.11 recombinant HBc chimer particle (hepatitis B virus, subtype ayw; Plasmodium falciparum)", "experiment": "particle ELISA, end point titer dilution of MoAb 2A10"}, "[6]": {"target": "V12.Pf3.12 recombinant HBc chimer particle (hepatitis B virus, subtype ayw; Plasmodium falciparum)", "experiment": "particle ELISA, end point titer dilution of MoAb 2A10"}, "[7]": {"target": "V12.Pf3.2 recombinant HBc chimer particle (hepatitis B virus, subtype ayw; Plasmodium falciparum)", "experiment": "particle ELISA, end point titer dilution of MoAb 2A10"}, "[8]": {"target": "V12.Pf3.3 recombinant HBc chimer particle (hepatitis B virus, subtype ayw; Plasmodium falciparum)", "experiment": "particle ELISA, end point titer dilution of MoAb 2A10"}, "[9]": {"target": "V12.Pf3.4 recombinant HBc chimer particle (hepatitis B virus, subtype ayw; Plasmodium falciparum)", "experiment": "particle ELISA, end point titer dilution of MoAb 2A10"}, "[10]": {"target": "V12.Pf3.5 recombinant HBc chimer particle (hepatitis B virus, subtype ayw; Plasmodium falciparum)", "experiment": "particle ELISA, end point titer dilution of MoAb 2A10"}, "[11]": {"target": "V12.Pf3.6 recombinant HBc chimer particle (hepatitis B virus, subtype ayw; Plasmodium falciparum)", "experiment": "particle ELISA, end point titer dilution of MoAb 2A10"}, "[12]": {"target": "V12.Pf3.8 recombinant HBc chimer particle (hepatitis B virus, subtype ayw; Plasmodium falciparum)", "experiment": "particle ELISA, end point titer dilution of MoAb 2A10"}, "[13]": {"target": "V12.Pf3.9 recombinant HBc chimer particle (hepatitis B virus, subtype ayw; Plasmodium falciparum)", "experiment": "particle ELISA, end point titer dilution of MoAb 2A10"}, "[14]": {"target": "V12.Pf3.1 recombinant HBc chimer particle (hepatitis B virus, subtype ayw; Plasmodium falciparum)", "experiment": "particle ELISA, end point titer dilution of MoAb 2A10; reference V12.Pf3"}},
  "data": [
    {"substance": "MoAb 2A10 (antibody)", "values": [
      {"measurement": "Antigenicity (end point titer, normalized so that the lowest titer is 1)", "setting": "[1]", "result": 33, "unit": "fold"},
      {"measurement": "Antigenicity (end point titer, normalized so that the lowest titer is 1)", "setting": "[2]", "result": 165, "unit": "fold"},
      {"measurement": "Antigenicity (end point titer, normalized so that the lowest titer is 1)", "setting": "[3]", "result": 33, "unit": "fold"},
      {"measurement": "Antigenicity (end point titer, normalized so that the lowest titer is 1)", "setting": "[4]", "result": 1, "unit": "fold"},
      {"measurement": "Antigenicity (end point titer, normalized so that the lowest titer is 1)", "setting": "[5]", "result": 5, "unit": "fold"},
      {"measurement": "Antigenicity (end point titer, normalized so that the lowest titer is 1)", "setting": "[6]", "result": 5, "unit": "fold"},
      {"measurement": "Antigenicity (end point titer, normalized so that the lowest titer is 1)", "setting": "[7]", "result": 33, "unit": "fold"},
      {"measurement": "Antigenicity (end point titer, normalized so that the lowest titer is 1)", "setting": "[8]", "result": 5, "unit": "fold"},
      {"measurement": "Antigenicity (end point titer, normalized so that the lowest titer is 1)", "setting": "[9]", "result": 5, "unit": "fold"},
      {"measurement": "Antigenicity (end point titer, normalized so that the lowest titer is 1)", "setting": "[10]", "result": 5, "unit": "fold"},
      {"measurement": "Antigenicity (end point titer, normalized so that the lowest titer is 1)", "setting": "[11]", "result": 5, "unit": "fold"},
      {"measurement": "Antigenicity (end point titer, normalized so that the lowest titer is 1)", "setting": "[12]", "result": 5, "unit": "fold"},
      {"measurement": "Antigenicity (end point titer, normalized so that the lowest titer is 1)", "setting": "[13]", "result": 5, "unit": "fold"},
      {"measurement": "fold less antigenic than V12.Pf3", "setting": "[14]", "result": 5, "unit": "fold"}
    ]}
  ]
}
